Measurements as given in patent US10590440B2, “Process for producing a fermentation product from a lignocellulose-containing material” (CysBio ApS, priority 2014, dated 2020).

System: E. coli
Assay: Growth of E. coli with or without SULT1A1 in M9 with wheat straw biomass hydrolysate (Example 7, FIG. 9)
Type: cell-based, Escherichia coli
Conditions: 1 mM IPTG
Source text: Here, we examine pre-treated wheat straw biomass hydrolysate in growth medium for a biotechnological relevant organism, exemplified by E. coli. Specifically, we used strains carrying plasmids expressing SULT1A1 from rat (Rattus norvegicus) and SULT1E1 from chicken (Gallus gallus domesticus) (Example 1) cloned into the expression vector pETDuet-1, and cysDNCQ from E. coli cloned into expression vector pRSFDuet-1 (Example 2) as described previously.
Cells expressing no sulfotransferase or SULT1A1 from rat were grown in M9 media with 1 mM IPTG with or without inhibitors of growth. Biomass hydrolysate was prepared by mixing 100 g biomass hydrolysate with 200 g of water for 2 h at 37° C., followed by centrifugation and filtration through a 0.2 μL-filter.

B1: SULT1A1 Rattus norvegicus: aryl sulfotransferase SULT1A1 from Rattus norvegicus (SEQ ID NO: 1), native gene, heterologously expressed (protein, listed as Rattus norvegicus)
chain: MEFSRPPLVHVKGIPLIKYFAETIGPLQNFTAWPDDLLISTYPKSGTTWMSEILDMIYQGGKLEKCGRAPIYARVPFLEFKCPGVPSGLETLEETPAPRLLKTHLPLSLLPQSLLDQKVKVIYIARNAKDVVVSYYNFYNMAKLHPDPGTWDSFLENFMDGEVSYGSWYQHVKEWWELRHTHPVLYLFYEDIKENPKREIKKILEFLGRSLPEETVDSIVHHTSFKKMKENCMTNYTTIPTEIMDHNVSPFMRKGTTGDWKNTFTVAQNERFDAHYAKTMTDCDFKFRCEL
growth rate versus strain without sulfotransferase (M9 with 8% or 12% biomass hydrolysate): significantly higher | growth rate versus strain without sulfotransferase (M9 without supplements): no difference in growth rate
